Here are results for one substance from paper PMC10285447.

Experiment [1] deals with H4-IgM-P (pentameric H4 IgM) (human) (UniProt P01591). Put plainly: ELISA. On the technique in general: An ELISA detects its analyte on a solid surface through an enzyme-linked reagent.
For experiment [2], the target named is P5C3-IgM-P (pentameric P5C3 IgM) (human) (UniProt P01591). As to the kind of experiment: ELISA; […] (from 500 ng/mL with P5C3, […].

As a reminder, the EC50 is the concentration giving half of the maximal effect. Turning to “SARS-CoV-2 spike protein RBD (Wuhan strain), recombinant (from UniProt P0DTC2 319-541) (domain or fragment)”, the results for the EC50 in experiment [1] and in experiment [2] were 0.169 nM and 0.016 nM, respectively.
